Substrate: O=C(O)c1ccccc1O
Test: Mtn/XOD/HRP-coupled Amplex Red fluorescence, initial rates, non-linear regression
Format: biochemical, Clarkia breweri
Conditions: 0.5 mM SAM, 5 mM MgCl2, 1 mM KCl, pH 7.5, 30°C, coupling enzymes possibly rate-limiting

B1: SA MTase (salicylic acid methyltransferase) (Clarkia breweri) (protein)
chain: MDVRQVLHMKGGAGENSYAMNSFIQRQVISITKPITEAAITALYSGDTVTTRLAIADLGCSSGPNALFAVTELIKTVEELRKKMGRENSPEYQIFLNDLPGNDFNAIFRSLPIENDVDGVCFINGVPGSFYGRLFPRNTLHFIHSSYSLMWLSQVPIGIESNKGNIYMANTCPQSVLNAYYKQFQEDHALFLRCRAQEVVPGGRMVLTILGRRSEDRASTECCLIWQLLAMALNQMVSEGLIEEEKMDKFNIPQYTPSPTEVEAEILKEGSFLIDHIEASEIYWSSCTKDGDGGGSVEEEGYNVARCMRAVAEPLLLDHFGEAIIEDVFHRYKLLIIERMSKEKTKFINVIVSLIRKSD
For B1, the Km was 6.8 (±1.0) μM and the kcat was 0.98 (±0.3) min^-1.
